Laboratory results reported in the supplement of paper PMC7877785.
± gives the uncertainty stated by the source.

Assay: self-splicing fitness, log relative to wild type (ln ratio); higher = more splicing; Tetrahymena group I intron in knt gene, E. coli kanamycin selection, DiMSum; sequences stand for … in CUCUCU…GGAGGGAAAAGUUAUCAGGCAUGCACCUGGUAGCUAGUCUUUAAACCAAUAGAUUGCAUCGGUUUAAAAGGCAAGACCGUCAAAUUGCGGGAAAGGGGUCAACAGCCGUUCAGUACCAAGUCUCAGGGGAAACUUUGAGAUGGCCUUGCAAAGGGUAUGGUAAUAAGCUGACGGACAUGGUCCUAACCACGCAGCCAAGUCCUAAGUCAACAGAUCUUCUGUUGAUAUGGAUGCAGUUCACAGACUAAAUGUCGGUCGGGGAAGAUGUAUUCUUCUCAUAAGAUAUAGUCGGACCUCUCCUUAAUGGGAGCUAGCGGAUGAAGUGAUGCAACACUGGAGCCGCUGGGAACUAAUUUGUAUGCGAAAGUAUAUUGAUUAGUUUUGGAGUACUCGUGGUCG
Summary of the method: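 Library with all eight P1ex-region intron nucleotides randomised, intron inside the knt kanamycin-resistance gene on pET-22b(+), in E. coli BL21(DE3). Cells grew overnight at 37°C or 30°C on LB agar with or without 25 μg/mL kanamycin (plus 100 μg/mL carbenicillin, 50 μM IPTG, 0.2% rhamnose), in six replicate transformations. Pooled colonies were amplicon-sequenced on Illumina HiSeq 2500. DiMSum fitness is the error-weighted combination of wild-type-normalised replicate fold changes, kanamycin versus none.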

| Sequence | self-splicing fitness (ln) (30 °C) | self-splicing fitness (ln) (37 °C) |
| --- | --- | --- |
| AUCUAGCAAUAUUACGACAU | 0.0957 ± 0.013 | 0.273 ± 0.032 |
| AUCUAGCAAUAUUACGAUAC | -3.21 ± 0.35 | -2.27 ± 0.29 |
| AUCUAGCAAUAUUACGAUCU | -1.03 ± 0.13 | 0.148 ± 0.15 |
| AUCUAGCAAUAUUACGCAGG | -2.97 ± 0.3 | -1.07 ± 0.18 |
| AUCUAGCAAUAUUACGCGCG | -0.762 ± 0.095 | -0.257 ± 0.12 |
| AUCUAGCAAUAUUACGCGGA | -1.69 ± 0.26 | -2.53 ± 0.23 |
| AUCUAGCAAUAUUACGCGGC | -3.15 ± 0.38 | -2.92 ± 0.33 |
| AUCUAGCAAUAUUACGCUAG | -3.91 ± 0.27 | -3.5 ± 0.31 |
| AUCUAGCAAUAUUACGCUCA | -0.577 ± 0.17 | -0.0187 ± 0.2 |
| AUCUAGCAAUAUUACGCUUG | -1.85 ± 0.12 | -1.36 ± 0.14 |
| AUCUAGCAAUAUUACGGAGC | -3.43 ± 0.19 | -1.32 ± 0.14 |
| AUCUAGCAAUAUUACGGAUC | -3.03 ± 0.17 | -2.33 ± 0.24 |
| AUCUAGCAAUAUUACGGCAG | -2.04 ± 0.17 | -0.157 ± 0.16 |
| AUCUAGCAAUAUUACGGUCU | -0.756 ± 0.078 | -0.908 ± 0.098 |
| AUCUAGCAAUAUUACGGUUU | -1.13 ± 0.13 | -0.53 ± 0.13 |
| AUCUAGCAAUAUUACGUAAU | -1.28 ± 0.098 | -1.37 ± 0.12 |
| AUCUAGCAAUAUUACGUAGG | -1.96 ± 0.14 | -0.273 ± 0.21 |
| AUCUAGCAAUAUUACGUAUA | -2.84 ± 0.33 | -1.91 ± 0.3 |
| AUCUAGCAAUAUUACGUAUC | -3.29 ± 0.24 | -1.74 ± 0.39 |
| AUCUAGCAAUAUUACGUCGA | -1.39 ± 0.11 | -0.769 ± 0.12 |
| AUCUAGCAAUAUUACGUGAC | -3.35 ± 0.26 | -1.14 ± 0.2 |
| AUCUAGCAAUAUUACGUGAU | -1.16 ± 0.14 | -2.25 ± 0.32 |
| AUGAAGCAAUAUUACGAAAG | -1.77 ± 0.11 | -0.735 ± 0.16 |
| AUGAAGCAAUAUUACGAGUC | – | -2.69 ± 0.24 |
| AUGAAGCAAUAUUACGAGUU | -2.19 ± 0.096 | -1.15 ± 0.1 |

| Sequence | self-splicing fitness (ln) (30 °C) | self-splicing fitness (ln) (37 °C) |
| --- | --- | --- |
| AUGAAGCAAUAUUACGAUAA | -0.381 ± 0.077 | -0.287 ± 0.085 |
| AUGAAGCAAUAUUACGAUGU | 0.274 ± 0.092 | -0.284 ± 0.099 |
| AUGAAGCAAUAUUACGCAAA | -2.25 ± 0.17 | -1.31 ± 0.17 |
| AUGAAGCAAUAUUACGCACG | -1.09 ± 0.1 | 0.541 ± 0.14 |
| AUGAAGCAAUAUUACGCCAC | -0.249 ± 0.39 | -1.9 ± 0.41 |
| AUGAAGCAAUAUUACGCCAG | -0.726 ± 0.13 | 0.273 ± 0.18 |
| AUGAAGCAAUAUUACGCCCG | -0.353 ± 0.25 | -0.729 ± 0.38 |
| AUGAAGCAAUAUUACGCCUA | 0.118 ± 0.087 | -0.0119 ± 0.14 |
| AUGAAGCAAUAUUACGCGGA | -0.591 ± 0.1 | -0.105 ± 0.12 |
| AUGAAGCAAUAUUACGCUAC | -2.06 ± 0.094 | -1.86 ± 0.15 |
| AUGAAGCAAUAUUACGCUGU | -2.02 ± 0.12 | -0.999 ± 0.13 |
| AUGAAGCAAUAUUACGGAGG | -2.82 ± 0.12 | -0.72 ± 0.12 |
| AUGAAGCAAUAUUACGGGGC | -4.78 ± 0.26 | -2.48 ± 0.2 |
| AUGAAGCAAUAUUACGUAAU | -1.57 ± 0.075 | -0.42 ± 0.094 |
| AUGAAGCAAUAUUACGUAGA | -2.86 ± 0.18 | -1.84 ± 0.19 |
| AUGAAGCAAUAUUACGUAUU | -1.52 ± 0.081 | -1.23 ± 0.099 |
| AUGAAGCAAUAUUACGUCAA | -0.911 ± 0.064 | -0.148 ± 0.076 |
| AUGAAGCAAUAUUACGUGCC | -0.735 ± 0.12 | -0.196 ± 0.11 |
| AUGAAGCAAUAUUACGUGCU | -1.69 ± 0.12 | -1.39 ± 0.12 |
| AUGCAGCAAUAUUACGAGUC | -3.73 ± 0.25 | -2.32 ± 0.22 |
| AUGCAGCAAUAUUACGAUAU | -1.04 ± 0.054 | 0.0687 ± 0.07 |
| AUGCAGCAAUAUUACGAUCU | -0.511 ± 0.084 | 0.285 ± 0.13 |
| AUGCAGCAAUAUUACGCCAU | -1.53 ± 0.18 | -2.28 ± 0.35 |
| AUGCAGCAAUAUUACGCCCU | -0.387 ± 0.22 | 0.0709 ± 0.25 |
| AUGCAGCAAUAUUACGCCGG | -1.72 ± 0.15 | -0.877 ± 0.21 |

| Sequence | self-splicing fitness (ln) (30 °C) | self-splicing fitness (ln) (37 °C) |
| --- | --- | --- |
| AUGCAGCAAUAUUACGCCUA | -0.128 ± 0.1 | -0.513 ± 0.12 |
| AUGCAGCAAUAUUACGCGAC | -2.18 ± 0.17 | -0.372 ± 0.17 |
| AUGCAGCAAUAUUACGCGAG | -3.82 ± 0.17 | -0.707 ± 0.11 |
| AUGCAGCAAUAUUACGCGGG | -2.94 ± 0.17 | -2.49 ± 0.17 |
| AUGCAGCAAUAUUACGGAAU | -2.37 ± 0.088 | -0.752 ± 0.093 |
| AUGCAGCAAUAUUACGGCAG | -0.985 ± 0.11 | -1.29 ± 0.15 |
| AUGCAGCAAUAUUACGGCGC | -0.143 ± 0.17 | 0.107 ± 0.18 |
| AUGCAGCAAUAUUACGGCUC | -0.408 ± 0.1 | -0.0582 ± 0.13 |
| AUGCAGCAAUAUUACGGGAC | -2.82 ± 0.17 | -2.74 ± 0.19 |
| AUGCAGCAAUAUUACGGGAG | -3.13 ± 0.17 | -2.11 ± 0.13 |
| AUGCAGCAAUAUUACGGGCU | -2.25 ± 0.078 | -1.07 ± 0.1 |
| AUGCAGCAAUAUUACGGUGG | -3.96 ± 0.18 | -1.86 ± 0.12 |
| AUGCAGCAAUAUUACGUAAA | -1.44 ± 0.092 | -1.14 ± 0.13 |
| AUGCAGCAAUAUUACGUAAG | -0.932 ± 0.062 | -0.743 ± 0.077 |
| AUGCAGCAAUAUUACGUAAU | -0.641 ± 0.05 | -0.479 ± 0.066 |
| AUGCAGCAAUAUUACGUCAC | – | -1.09 ± 0.16 |
| AUGCAGCAAUAUUACGUGUA | -2.34 ± 0.11 | -0.835 ± 0.091 |
| AUGGAGCAAUAUUACGAAAA | – | -0.761 ± 0.38 |
| AUGGAGCAAUAUUACGAAAC | -2.72 ± 0.4 | – |
| AUGGAGCAAUAUUACGAAAU | -1.92 ± 0.23 | – |
| AUGGAGCAAUAUUACGACAU | -1.36 ± 0.017 | -0.784 ± 0.035 |
| AUGGAGCAAUAUUACGACGG | – | 1.8 ± 0.38 |
| AUGGAGCAAUAUUACGACUU | -1.73 ± 0.1 | -1.08 ± 0.13 |
| AUGGAGCAAUAUUACGAGCA | -2.33 ± 0.46 | -1.17 ± 0.49 |
| AUGGAGCAAUAUUACGAGUU | -4.04 ± 0.43 | -3.03 ± 0.22 |

| Sequence | self-splicing fitness (ln) (30 °C) | self-splicing fitness (ln) (37 °C) |
| --- | --- | --- |
| AUGGAGCAAUAUUACGAUCG | – | -1.1 ± 0.42 |
| AUGGAGCAAUAUUACGAUUA | -1.13 ± 0.36 | – |
| AUGGAGCAAUAUUACGCACA | -1.57 ± 0.16 | -0.961 ± 0.21 |
| AUGGAGCAAUAUUACGCAGC | -2.14 ± 0.23 | -2.54 ± 0.33 |
| AUGGAGCAAUAUUACGCAUC | -3.74 ± 0.14 | -3.29 ± 0.26 |
| AUGGAGCAAUAUUACGCCAG | -2.26 ± 0.35 | – |
| AUGGAGCAAUAUUACGCCAU | -4.27 ± 0.46 | -2.17 ± 0.34 |
| AUGGAGCAAUAUUACGCUCA | -1.46 ± 0.17 | -1.17 ± 0.18 |
| AUGGAGCAAUAUUACGCUCG | -1.58 ± 0.14 | -0.952 ± 0.18 |
| AUGGAGCAAUAUUACGGAAC | – | -1.21 ± 0.42 |
| AUGGAGCAAUAUUACGGAAG | -3.24 ± 0.38 | – |
| AUGGAGCAAUAUUACGGACG | -2.44 ± 0.32 | -0.988 ± 0.3 |
| AUGGAGCAAUAUUACGGAGA | -2.93 ± 0.44 | -1.21 ± 0.32 |
| AUGGAGCAAUAUUACGGGUU | -2.3 ± 0.43 | -3.16 ± 0.4 |
| AUGGAGCAAUAUUACGGUUG | -4.12 ± 0.3 | -2.21 ± 0.23 |
| AUGGAGCAAUAUUACGUCAA | -1.77 ± 0.35 | -0.821 ± 0.36 |
| AUGGAGCAAUAUUACGUUUA | -2.59 ± 0.28 | -1.83 ± 0.27 |
| AUGUAGCAAUAUUACGAACU | -0.642 ± 0.12 | 0.131 ± 0.15 |
| AUGUAGCAAUAUUACGAAGC | -3.22 ± 0.37 | 0.239 ± 0.23 |
| AUGUAGCAAUAUUACGAAUU | -2 ± 0.12 | -1.84 ± 0.16 |
| AUGUAGCAAUAUUACGAGAC | -3.13 ± 0.31 | -2.09 ± 0.2 |
| AUGUAGCAAUAUUACGAGCG | -1.23 ± 0.11 | -1.8 ± 0.14 |
| AUGUAGCAAUAUUACGAUGA | -0.624 ± 0.15 | -1.66 ± 0.15 |
